Test [1] deals with SCC152 target cells. Description: Phagocytosis of SCC152 by CD4+ T cell/CER, fluorescence microscopy with hybrid capture. Conditions: TRAF-domain CERs, 4 hours, 1:1:0.5 (CD8:CD4:target cell); versus CD4+ control + CD8+/E7 TCR. The format is cell-based. The protocol:
FIG. 28 is a bar graph representing quantification of CD4+ T cell-CER mediated phagocytosis of SCC152 target cells. Results calculated as ((number of phagocytic target events)/(total number of effectors))*100 from 3×3 40× images, 4 hours after initiation of co-culture assay. CD8+ T cells transduced with HPV16 E7 TCR and CD4+ T cells transduced with selected CERs (CER5, CER17, CER19, CER21, CER23, CER26, CER27, CER103b, CER104, CER105, CER106, or CER116) were co-cultured with SCC152 squamous head and neck carcinoma target cells at a 1:1:0.5 ratio for 4 hours and imaged.
FIG. 29 is a bar graph representing quantification of CD4+ T cell-CER mediated phagocytosis of SCC152 target cells. Results calculated as (median area ratio of target events in effector cells*% phagocytosis) from 3×3 40× images, 4 hours after initiation of co-culture assay. CD8+ T cells transduced with HPV16 E7 TCR and CD4+ T cells transduced with selected CERs (CER5, CER17, CER19, CER21, CER23, CER26, CER27, CER103b, CER104, CER105, CER106, or CER116) were co-cultured with SCC152 squamous head and neck carcinoma target cells at a 1:1:0.5 ratio for 4 hours and imaged.
(§1) FIG. 55 is a bar graph representing quantification of CD4+ T cell-CER mediated phagocytosis of SCC152 target cells. Percent phagocytosis was calculated as ((number of phagocytic target events)/(total number of effector cells))*100. These numbers were calculated from 3×3 images captured by Keyence BZ-X710 fluorescence microscope at 40× resolution, 4 hours after initiation of co-culture assay. CD8+ T cells transduced with HPV16 E7 TCR and CD4+ T cells transduced with a selected CER (CER29, CER30, CER110, CER112, CER113, CER114, CER116, or CER117) were co-cultured with SCC152 target cells at a 1:1:0.5 ratio (CD8:CD4:target cell) for 4 hours and imaged.
as §1, with “56” for “55”, “Adjusted phagocytic index” for “Percent phagocytosis”, “(median area ratio” for “((number”, “of” for “of phagocytic”, “events in” for “events)/(total number of”, “cells*% phagocytosis).” for “cells))*100.”
Phagocytic activity of CD4+ T cell/CER+CD8+ T cell/HPV16 E7 TCR combinations co-cultured with SCC152 cells was visualized and quantified using KEYENCE BZ-X710 fluorescence microscope, […] and hybrid capture software.

Test [2] deals with SCC152 target cells. Description: Lactate dehydrogenase (LDH) cytotoxicity assay in SCC152 co-culture. In kind it is cell-based. As to conditions: CD4+/CER + CD8+/HPV16 E7 TCR 1:1; 4 hours co-culture, varying target:effector ratios. The protocol:
FIG. 19 is a bar graph showing a lactate dehydrogenase (LDH) cytotoxicity assay performed 4 hours after co-culture of CD8+ T cells transduced with a HPV16 E7 TCR and CD4+ T cells transduced with CER104 at a 1:1 ratio with SCC152 target cells at varying target cell:effector cell ratios (0.5:1, 1:1, 1:2.5, 1:5, 1:10, 1:20).
LDH is a cytosolic enzyme that is released by a cell into cell culture media when the plasma membrane is damaged. Thus, LDH's presence in culture medium is a marker for cell death. LDH assays are capable of detecting low level damage to cell membrane which cannot be detected using other methods. LDH may be detected using colorimetric or fluorometric methods.

In test [3] the test system is SCC152 HPV+ Head & Neck Squamous Carcinoma. Description: SCC152 xenograft in NSG mice, tumor caliper measurements. The format is in vivo. Conditions: 3×10^6 CER CD4+ T cells added to 1×10^6 E7 TCR CD8+ T cells; versus E7 TCR CD8+ T cells alone. The source says:
1×10^^6 CD8^+ T cells engineered with a HPV E7 specific TCR were infused with or without 3×10^6 CD4+ T cells engineered with CER104. Data represents mean value of tumor caliper measurements (n=5 mice per group).
Cellular immunotherapy composition combination comprising HPV E7 specific TCR modified CD8+ T cells (1×10^6) (as described in Example 1) and hCER104 modified CD4+ T cells (3×10^6) were infused into head neck squamous cell cancer mouse model generated by injecting HPV+ SCC152 cells into NSG mice and compared with SCC152 xenograft mice treated with HPV E7 specific TCR modified CD8+ T cells alone (n=5 mice/treatment group).

B1: CER117: Chimeric engulfment receptor: Tim4 binding, Tim4 transmembrane, TLR8 and TRAF6 signaling; SEQ ID NO: 153 (protein)
chain: MSKGLLLLWLVTELWWLYLTPAASEDTIIGFLGQPVTLPCHYLSWSQSRNSMCWGKGSCPNSKCNAELLRTDGTRIISRKSTKYTLLGKVQFGEVSLTISNTNRGDSGVYCCRIEVPGWFNDVKKNVRLELRRATTTKKPTTTTRPTTTPYVTTTTPELLPTTVMTTSVLPTTTPPQTLATTAFSTAVTTCPSTTPGSFSQETTKGSAFTTESETLPASNHSQRSMMTISTDIAVLRPTGSNPGILPSTSQLTTQKTTLTTSESLQKTTKSHQINSRQTILIIACCVGFVLMVLLFLAFLHHLFYWDVWFIYNVCLAKVKGYRSLSTSQTFYDAYISYDTKDASVTDWVINELRYHLEESRDKNVLLCLEERDWDPGLAIIDNLMQSINQSKKTVFVLTKKYAKSWNFKTAFYLALQRLMDENMDVIIFILLEPVLQHSQYLRLRQRICKSSILQWPDNPKAEGLFWQTLRNVVLTENDSRYNNMYVDSIKQYMSLLNCENSCGSSQSESDCCVAMASSCSAVTKDDSVGGTASTGNLSSSFMEEIQGYDVEFDPPLESKYECPICLMALREAVQTPCGHRFCKACIIKSIRDAGHKCPVDNEILLENQLFPDNFAKREILSLMVKCPNEGCLHKMELRHLEDHQAHCEFALMDCPQCQRPFQKFHINIHILKDCPRRQVSCDNCAASMAFEDKEIHDQNCPLANVICEYCNTILIREQMPNHYDLDCPTAPIPCTFSTFGCHEKMQRNHLARHLQENTQSHMRMLA
modifications: CER117, amino acids 1-22 are signal peptide
Consider B1, for which the “engulfment of SCC152 target cells (percent phagocytosis, adjusted phagocytic index)” value with SCC152 target cells [1] is reported as “enhanced engulfment”.

B2: CER104: Chimeric engulfment receptor: Tim4 binding, Tim4 transmembrane, TLR8 and DAP12 signaling; SEQ ID NO: 139 (protein)
chain: MSKGLLLLWLVTELWWLYLTPAASEDTIIGFLGQPVTLPCHYLSWSQSRNSMCWGKGSCPNSKCNAELLRTDGTRIISRKSTKYTLLGKVQFGEVSLTISNTNRGDSGVYCCRIEVPGWFNDVKKNVRLELRRATTTKKPTTTTRPTTTPYVTTTTPELLPTTVMTTSVLPTTTPPQTLATTAFSTAVTTCPSTTPGSFSQETTKGSAFTTESETLPASNHSQRSMMTISTDIAVLRPTGSNPGILPSTSQLTTQKTTLTTSESLQKTTKSHQINSRQTILIIACCVGFVLMVLLFLAFLHHLFYWDVWFIYNVCLAKVKGYRSLSTSQTFYDAYISYDTKDASVTDWVINELRYHLEESRDKNVLLCLEERDWDPGLAIIDNLMQSINQSKKTVFVLTKKYAKSWNFKTAFYLALQRLMDENMDVIIFILLEPVLQHSQYLRLRQRICKSSILQWPDNPKAEGLFWQTLRNVVLTENDSRYNNMYVDSIKQYYFLGRLVPRGRGAAEAATRKQRITETESPYQELQGQRSDVYSDLNTQRPYYK
modifications: CER104, amino acids 1-22 are signal peptide
B2: the “cytolytic activity (LDH release)” value in the test with SCC152 target cells [2] was “enhanced cytolytic activity”. Also, in test [3], the “tumor killing (tumor volume by caliper)” value is on record as “enhanced tumor killing in vivo”.

B3: CER116: Chimeric engulfment receptor: Tim4 binding, Tim4 transmembrane, TRAF6 and TLR8 signaling; SEQ ID NO: 152 (protein)
chain: MSKGLLLLWLVTELWWLYLTPAASEDTIIGFLGQPVTLPCHYLSWSQSRNSMCWGKGSCPNSKCNAELLRTDGTRIISRKSTKYTLLGKVQFGEVSLTISNTNRGDSGVYCCRIEVPGWFNDVKKNVRLELRRATTTKKPTTTTRPTTTPYVTTTTPELLPTTVMTTSVLPTTTPPQTLATTAFSTAVTTCPSTTPGSFSQETTKGSAFTTESETLPASNHSQRSMMTISTDIAVLRPTGSNPGILPSTSQLTTQKTTLTTSESLQKTTKSHQINSRQTILIIACCVGFVLMVLLFLAFLMSLLNCENSCGSSQSESDCCVAMASSCSAVTKDDSVGGTASTGNLSSSFMEEIQGYDVEFDPPLESKYECPICLMALREAVQTPCGHRFCKACIIKSIRDAGHKCPVDNEILLENQLFPDNFAKREILSLMVKCPNEGCLHKMELRHLEDHQAHCEFALMDCPQCQRPFQKFHINIHILKDCPRRQVSCDNCAASMAFEDKEIHDQNCPLANVICEYCNTILIREQMPNHYDLDCPTAPIPCTFSTFGCHEKMQRNHLARHLQENTQSHMRMLAHHLFYWDVWFIYNVCLAKVKGYRSLSTSQTFYDAYISYDTKDASVTDWVINELRYHLEESRDKNVLLCLEERDWDPGLAIIDNLMQSINQSKKTVFVLTKKYAKSWNFKTAFYLALQRLMDENMDVIIFILLEPVLQHSQYLRLRQRICKSSILQWPDNPKAEGLFWQTLRNVVLTENDSRYNNMYVDSIKQY
modifications: CER116, amino acids 1-22 are signal peptide
With B3, in the test on SCC152 target cells [1], the “engulfment of SCC152 target cells (percent phagocytosis, adjusted phagocytic index)” value was “enhanced engulfment”.
